This is an account of results in patent US20140341915A1 (DEUTSCHES KREBSFORSCHUNGSZENTRUM, published 2014).

The target of test [1] is T1, B7-H6-Ig-fusionprotein consisting of the extracellular domain of B7-H6 fused to an IgG1-Fc domain (human, UniProt Q68D85 25-267).
T1 construct: Junction residues from restriction sites are not given; also called B7-H6-Ig-FP
T1 sequence: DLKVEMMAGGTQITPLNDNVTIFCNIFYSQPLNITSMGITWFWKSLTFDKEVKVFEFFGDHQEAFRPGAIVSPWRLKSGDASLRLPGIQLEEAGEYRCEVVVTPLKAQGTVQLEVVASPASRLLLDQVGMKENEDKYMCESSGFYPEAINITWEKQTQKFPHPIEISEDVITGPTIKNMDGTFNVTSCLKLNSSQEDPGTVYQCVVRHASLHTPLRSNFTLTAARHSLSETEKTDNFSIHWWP
Put plainly: ELISA.

Test [2] deals with T2, B7-H6 polypeptide on cells (BA/F3-B7-H6 transfectants; cell lines expressing B7-H6 endogenously) (human, UniProt Q68D85 25-454).
T2 construct: whole, on cells; The construct used for the BA/F3 transfectants is not described
T2 sequence (looked up): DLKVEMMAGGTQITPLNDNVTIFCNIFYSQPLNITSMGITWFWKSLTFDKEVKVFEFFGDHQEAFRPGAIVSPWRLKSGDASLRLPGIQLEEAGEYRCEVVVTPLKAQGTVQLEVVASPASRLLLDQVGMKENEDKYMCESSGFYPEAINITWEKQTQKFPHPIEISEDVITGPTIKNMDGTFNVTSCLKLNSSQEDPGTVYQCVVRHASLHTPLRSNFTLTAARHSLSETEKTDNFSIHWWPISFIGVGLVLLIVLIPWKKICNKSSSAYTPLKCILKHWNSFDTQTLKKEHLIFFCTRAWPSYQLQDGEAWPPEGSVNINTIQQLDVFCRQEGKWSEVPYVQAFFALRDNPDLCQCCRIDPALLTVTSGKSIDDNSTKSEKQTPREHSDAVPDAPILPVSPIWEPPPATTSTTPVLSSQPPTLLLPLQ
In words: immunohistochemistry on acetone-fixed cytospins, mAb at 5 µg/ml. On the procedure: Acetone-fixed cytospins of a 1:1 mixture of Ba/F3 and Ba/F3-B7-H6 cells were stained using the Dual Envision+System-HRP (Dako). After blocking endogenous peroxidase activity, cytospins were blocked with 10% goat serum and 0.1 mg/ml human
IgG. […] After incubation with 3,3′-diaminobenzidine (DAB) substrate solution, cell nuclei were counterstained with Hematoxylin and mounted cyotospins were analyzed by light microscopy.

B1: anti-B7-H6 monoclonal antibody (mAb) 1.18 (antibody, V domains shown)
VH: DVKLVESGGGLVKPGGSLKLSCAASGFTFSSYTMSWVRQTPEKRLEWVATINNGGSYTYYPDSVKGRFTISRDNAKNTLYLQMSSLKSEDTAIYYCYGYDPAWFAYWGQGTLVTVSA
VL: QAVVTQESALTTSPGETVTLTCRSSTGAVTTSNYANWVQEKPDHLFTGLIGGTNNRAPGVPARFSGSLIGDKAALTITGAQTEDEAIYFCALWYSNHWVFGGGTKLTVLG
B1: the binding result in test [1] and in test [2] was “binds” throughout.
